Residue numbers refer to the chain shown, from its start. Numbers in names are those of the source.
Biological target: T1, human C1q (human, UniProt P02745 23-245; P02746 28-253; P02747 29-245)
T1 construct: The assay used recombinant human C1q (Abd Serotec, 0.2 ug/ml) or C1q from natural human complement (Sigma); It was detected with sheep anti-human C1q-peroxidase on plates coated with the MAb; also called recombinant human C1q; human complement
Experiment: ELISA, C1q on coated MAb
Procedure: The binding of human recombinant C1q was assessed by an ELISA binding assay. […] Data represent mean+/−SD of two independent experiments.
Complement binding assay: The binding of human C1q to MAbs was assessed by an ELISA binding assay. The 96-well plates (Nunc) were coated overnight at 4° C. with varying MAb concentrations. After washing, the plates were blocked with PBS-5% BSA for 1 h, and incubated for 1 h with 0.2 μg/ml of recombinant human C1q (Abd Serotec) or 2.5 μl of natural human complement (Sigma). Then, 100 μl of a 1/500 dilution of sheep anti-human C1q peroxidase-conjugated Ab (Abd Serotec) added and incubated for 1 h. The plates were developed with 100 μl per well of TMB substrate (Uptima Interchim). After H₂S0₄ addition, the OD was measured at 450 nm/630 nm using a MRX II microplate reader.

T1 sequence (P02745 23-245 limits assumed, chain 1 of 3): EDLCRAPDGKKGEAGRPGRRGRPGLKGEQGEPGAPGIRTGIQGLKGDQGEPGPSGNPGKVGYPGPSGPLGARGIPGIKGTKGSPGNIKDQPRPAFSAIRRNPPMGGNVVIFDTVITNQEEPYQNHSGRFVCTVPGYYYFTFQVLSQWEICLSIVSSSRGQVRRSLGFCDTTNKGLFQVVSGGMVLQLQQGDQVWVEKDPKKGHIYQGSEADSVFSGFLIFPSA
T1 sequence (P02746 28-253 limits assumed, chain 2 of 3): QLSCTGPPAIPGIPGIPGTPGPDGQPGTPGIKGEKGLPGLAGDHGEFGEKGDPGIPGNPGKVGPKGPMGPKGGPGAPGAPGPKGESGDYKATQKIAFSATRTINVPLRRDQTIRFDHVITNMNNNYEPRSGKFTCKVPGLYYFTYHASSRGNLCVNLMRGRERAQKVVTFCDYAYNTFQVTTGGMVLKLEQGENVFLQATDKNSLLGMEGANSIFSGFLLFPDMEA
T1 sequence (P02747 29-245 limits assumed, chain 3 of 3): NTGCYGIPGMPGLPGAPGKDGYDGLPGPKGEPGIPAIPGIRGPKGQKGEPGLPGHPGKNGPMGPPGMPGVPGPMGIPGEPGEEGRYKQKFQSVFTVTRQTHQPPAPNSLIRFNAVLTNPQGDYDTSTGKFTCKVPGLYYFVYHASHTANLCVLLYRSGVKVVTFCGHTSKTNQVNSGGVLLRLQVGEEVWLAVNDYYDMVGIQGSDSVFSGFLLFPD

B1: chR005-1 Fc24 (antibody)
heavy: QVQLQQSGAELVRPGSSVKISCKASGYAFSSYWVNWMKQRPGQGLEWIGQIYPGDGDTNYNGKFKGRATVTADKSSSTSYMQFSSLTSEDSAVYFCARSITTVVGCAMDYWGQGTSVTVSSASTKGPSVFPLAPSSKSTSGGTAALGCLVKDYFPEPVTVSWNSGALTSGVHTFPAVLQSSGLYSLSSVVTVPSSSLGTQTYICNVNHKPSNTKVDKKVEPKSCDKTHTCPPCPAPELLGGPSVFLLPPKPKDTLMISRTPEVTCVVVDVSHEDPEVKFNWYVDGVEVHNAKTKPPEEQYNSTLRVVSLLTVLHQDWLNGKEYKCKVSNAALPAPIAKTISKAKGQPREPQVYTLPPSRDELTKNQVSLTCLVKGFYPSDIAVEWESNGQPENNYKTTPLVLDSDGSFFLYSKLTVDKSRWQQGNVFSCSVMHEALHNHYTQKSLSLSPGK
light: DIQMTQSSAYLSVSLGGRVTITCKASDHINNWLAWYQHKPGNAPRLLISGATTLETGVPSRFSGSGSGKDYTLSITSLQTEDVATYYCQQSWNTPWTFGGGTK
notes: Chimeric human IgG1 with variant Fc24 (F243L/R292P/Y300L/V305L/K326A/E333A/P396L against Fc0); also called chR005-1 Fc24 MAb; Fc24 optimized chR005-1 MAb; not shown: human light chain constant region
B1: binds.

B2: chR005-1 Fc34 (antibody)
heavy: B1 heavy with A337E
light: B1 light
notes: Chimeric human IgG1 with variant Fc34 (F243L/R292P/Y300L/V305L/K326A/P396L against Fc0); also called chR005-1 Fc34 MAb; Fc34 LPLLAL; not shown: human light chain constant region
B2: binds.
